Measurements as given in patent publication US20210221891A1.

Target: human PD-L1 expressed on CHO-K1 cells (human) (UniProt Q9NZQ7)
Test: FACS binding to CHO-K1 cells stably expressing human PD-L1, FITC anti-human IgG secondary, Geo.Mean fluorescence vs log(nM) antibody

Chain of human PD-L1 expressed on CHO-K1 cells (human) (Q9NZQ7 19-290): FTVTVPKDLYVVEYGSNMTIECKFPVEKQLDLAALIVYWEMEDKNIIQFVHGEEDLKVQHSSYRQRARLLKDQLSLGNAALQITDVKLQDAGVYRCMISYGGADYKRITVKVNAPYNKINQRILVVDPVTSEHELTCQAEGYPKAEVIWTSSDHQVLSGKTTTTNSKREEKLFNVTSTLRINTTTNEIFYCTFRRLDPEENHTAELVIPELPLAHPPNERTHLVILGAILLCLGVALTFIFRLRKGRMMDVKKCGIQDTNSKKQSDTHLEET

EC50 (read off the curve): 20 nM
Substance: Tecentriq® (antibody)
